From paper PMC3196243 (Biochemistry, 2011)
Like-named read-outs stand apart in the source and are kept apart here.

T1: His6-IC3 (third intracellular loop of the dopamine D2S receptor, R217-Q345) (UniProt P61169-2 217-345)
T1 sequence (looked up): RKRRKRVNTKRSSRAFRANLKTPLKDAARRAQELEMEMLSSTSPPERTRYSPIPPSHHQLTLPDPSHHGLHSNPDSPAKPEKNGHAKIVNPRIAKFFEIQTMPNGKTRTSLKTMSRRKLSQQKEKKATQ

B1: IC3-C58 (domain or fragment, UniProt P61169-2 288-345, looked up)
chain: SNPDSPAKPEKNGHAKIVNPRIAKFFEIQTMPNGKTRTSLKTMSRRKLSQQKEKKATQ
B2: S100B (natural protein)
chain: SELEKAMVALIDVFHQYSGREGDKHKLKKSELKELINNELSHFLEEIKEQEVVDKVMETLDNDGDGECDFQEFMAFVAMVTTACHEFFEHE

What was measured:
S100B [1] = target: B2; experiment: NMR titration
S100B [2] = target: B2; experiment: NMR titration; remark: listed apart in the source
[3] = target: T1, His6-IC3 (third intracellular loop of …); experiment: pull-down

Kd (S100B [1]) | Kd (S100B [2]) | binding result [3] | Binder
274 ± 58 µM | 1 ± 1 µM |  | B1
 |  | binds | B2
